Measurements as given in US8242083B2, “Kinase substrates” (PerkinElmer Health Sciences, Inc., priority 2008, dated 2012).

What was measured:
Type in all cases: biochemical
EphB4 = target: T1, EphB4 (Homo sapiens, UniProt P54760); assay: TR-FRET kinase assay, EphB4; details: Kinase Concentration 0.5 nM; 50 nM ULight-labeled substrate, 200 micromolar ATP, 2 hours
T1 sequence (P54760 16-987): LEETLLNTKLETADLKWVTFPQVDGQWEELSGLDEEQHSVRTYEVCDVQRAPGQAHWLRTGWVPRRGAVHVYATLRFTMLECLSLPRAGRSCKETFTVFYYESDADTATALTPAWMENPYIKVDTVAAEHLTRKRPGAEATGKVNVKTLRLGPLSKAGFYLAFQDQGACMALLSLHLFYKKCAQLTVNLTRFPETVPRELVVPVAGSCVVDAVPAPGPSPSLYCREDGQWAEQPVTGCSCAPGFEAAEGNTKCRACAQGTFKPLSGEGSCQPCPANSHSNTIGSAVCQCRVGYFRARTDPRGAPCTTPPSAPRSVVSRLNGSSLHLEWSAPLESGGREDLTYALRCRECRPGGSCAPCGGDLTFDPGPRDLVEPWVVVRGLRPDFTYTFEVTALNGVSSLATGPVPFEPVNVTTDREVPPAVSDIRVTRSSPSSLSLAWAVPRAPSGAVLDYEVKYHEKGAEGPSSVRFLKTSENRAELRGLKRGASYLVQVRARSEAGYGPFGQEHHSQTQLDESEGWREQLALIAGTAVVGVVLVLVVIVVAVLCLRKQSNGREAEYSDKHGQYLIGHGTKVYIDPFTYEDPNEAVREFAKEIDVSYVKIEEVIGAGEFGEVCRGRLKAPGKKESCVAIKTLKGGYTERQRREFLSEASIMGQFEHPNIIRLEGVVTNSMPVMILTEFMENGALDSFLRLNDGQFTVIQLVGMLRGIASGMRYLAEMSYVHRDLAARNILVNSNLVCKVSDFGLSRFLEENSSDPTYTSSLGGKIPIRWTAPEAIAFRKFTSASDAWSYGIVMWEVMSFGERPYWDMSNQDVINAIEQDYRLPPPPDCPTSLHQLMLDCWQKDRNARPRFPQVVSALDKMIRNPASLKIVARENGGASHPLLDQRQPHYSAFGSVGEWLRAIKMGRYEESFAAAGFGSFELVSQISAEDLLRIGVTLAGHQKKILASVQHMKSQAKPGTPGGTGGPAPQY
Protocol: (§1) TR-FRET kinase assays are performed under standardized conditions: various individual kinases are incubated with 50 nM of kinase substrate BRB1 labeled with the TR-FRET acceptor dye ULight (PerkinElmer) and 200 micromolar ATP in 10 μL of kinase assay buffer (50 mM HEPES pH7.5, 10 mM MgCl2, 3 mM MnCl2, 1 mM EGTA, 2 mM DTT and 0.01% Tween-20) for 2 hours at room temperature. Reactions are stopped with EDTA, and anti-phospho-tyrosine antibodies (clone PT66) labeled with the TR-FRET europium chelate donor dye are added to a final concentration of 2 nM in a final volume of 20 μL. The TR-FRET signal emitted at 665 nm is read one hour after the addition of antibodies using a TR-FRET plate reader such as the Envision® Multilabel Plate reader (PerkinElmer). The emitted signal at 665 nm is proportional to the extent of peptide phosphorylation, Control reactions indicative of background are performed excluding ATP from the reaction.
(§2) Assay conditions are identical to those used described for FIG. 1.

EphB3 = target: T2, EphB3 (Homo sapiens, UniProt P54753); assay: TR-FRET kinase assay, EphB3; details: Kinase Concentration 0.1 nM; 50 nM ULight-labeled substrate, 200 micromolar ATP, 2 hours
T2 sequence (P54753 34-998): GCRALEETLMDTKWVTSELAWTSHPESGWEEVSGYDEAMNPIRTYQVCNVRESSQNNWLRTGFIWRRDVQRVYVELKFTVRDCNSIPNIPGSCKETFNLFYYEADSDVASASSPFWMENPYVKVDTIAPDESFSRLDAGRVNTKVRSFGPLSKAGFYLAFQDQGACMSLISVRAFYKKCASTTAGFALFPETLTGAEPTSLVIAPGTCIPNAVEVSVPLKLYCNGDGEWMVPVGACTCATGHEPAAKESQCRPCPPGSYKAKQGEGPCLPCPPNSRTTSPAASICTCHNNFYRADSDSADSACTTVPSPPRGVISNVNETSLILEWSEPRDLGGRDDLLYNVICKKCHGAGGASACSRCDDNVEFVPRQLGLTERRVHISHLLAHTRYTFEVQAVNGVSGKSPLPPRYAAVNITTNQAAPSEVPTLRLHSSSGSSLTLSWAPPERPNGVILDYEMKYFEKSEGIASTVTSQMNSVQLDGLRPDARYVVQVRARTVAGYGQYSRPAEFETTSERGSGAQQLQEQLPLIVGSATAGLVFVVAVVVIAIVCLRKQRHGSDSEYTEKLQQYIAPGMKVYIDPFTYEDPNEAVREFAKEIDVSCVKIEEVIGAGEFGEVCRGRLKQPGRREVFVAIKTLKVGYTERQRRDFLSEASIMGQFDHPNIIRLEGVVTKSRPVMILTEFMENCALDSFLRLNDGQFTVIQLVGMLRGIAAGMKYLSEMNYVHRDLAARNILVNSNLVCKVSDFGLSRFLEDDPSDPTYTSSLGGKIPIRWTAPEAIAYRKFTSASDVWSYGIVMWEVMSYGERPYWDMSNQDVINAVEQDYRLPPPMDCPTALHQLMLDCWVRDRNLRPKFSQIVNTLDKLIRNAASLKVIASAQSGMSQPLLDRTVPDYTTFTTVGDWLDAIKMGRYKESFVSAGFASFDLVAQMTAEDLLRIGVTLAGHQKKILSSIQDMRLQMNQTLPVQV
Protocol: as §1, §2

ROS = ROS (Homo sapiens, UniProt P08922); assay: TR-FRET kinase assay, ROS; details: Kinase Concentration 0.25 nM; 50 nM ULight-labeled substrate, 200 micromolar ATP, 2 hours
Chain of ROS (P08922 28-2347, species assumed): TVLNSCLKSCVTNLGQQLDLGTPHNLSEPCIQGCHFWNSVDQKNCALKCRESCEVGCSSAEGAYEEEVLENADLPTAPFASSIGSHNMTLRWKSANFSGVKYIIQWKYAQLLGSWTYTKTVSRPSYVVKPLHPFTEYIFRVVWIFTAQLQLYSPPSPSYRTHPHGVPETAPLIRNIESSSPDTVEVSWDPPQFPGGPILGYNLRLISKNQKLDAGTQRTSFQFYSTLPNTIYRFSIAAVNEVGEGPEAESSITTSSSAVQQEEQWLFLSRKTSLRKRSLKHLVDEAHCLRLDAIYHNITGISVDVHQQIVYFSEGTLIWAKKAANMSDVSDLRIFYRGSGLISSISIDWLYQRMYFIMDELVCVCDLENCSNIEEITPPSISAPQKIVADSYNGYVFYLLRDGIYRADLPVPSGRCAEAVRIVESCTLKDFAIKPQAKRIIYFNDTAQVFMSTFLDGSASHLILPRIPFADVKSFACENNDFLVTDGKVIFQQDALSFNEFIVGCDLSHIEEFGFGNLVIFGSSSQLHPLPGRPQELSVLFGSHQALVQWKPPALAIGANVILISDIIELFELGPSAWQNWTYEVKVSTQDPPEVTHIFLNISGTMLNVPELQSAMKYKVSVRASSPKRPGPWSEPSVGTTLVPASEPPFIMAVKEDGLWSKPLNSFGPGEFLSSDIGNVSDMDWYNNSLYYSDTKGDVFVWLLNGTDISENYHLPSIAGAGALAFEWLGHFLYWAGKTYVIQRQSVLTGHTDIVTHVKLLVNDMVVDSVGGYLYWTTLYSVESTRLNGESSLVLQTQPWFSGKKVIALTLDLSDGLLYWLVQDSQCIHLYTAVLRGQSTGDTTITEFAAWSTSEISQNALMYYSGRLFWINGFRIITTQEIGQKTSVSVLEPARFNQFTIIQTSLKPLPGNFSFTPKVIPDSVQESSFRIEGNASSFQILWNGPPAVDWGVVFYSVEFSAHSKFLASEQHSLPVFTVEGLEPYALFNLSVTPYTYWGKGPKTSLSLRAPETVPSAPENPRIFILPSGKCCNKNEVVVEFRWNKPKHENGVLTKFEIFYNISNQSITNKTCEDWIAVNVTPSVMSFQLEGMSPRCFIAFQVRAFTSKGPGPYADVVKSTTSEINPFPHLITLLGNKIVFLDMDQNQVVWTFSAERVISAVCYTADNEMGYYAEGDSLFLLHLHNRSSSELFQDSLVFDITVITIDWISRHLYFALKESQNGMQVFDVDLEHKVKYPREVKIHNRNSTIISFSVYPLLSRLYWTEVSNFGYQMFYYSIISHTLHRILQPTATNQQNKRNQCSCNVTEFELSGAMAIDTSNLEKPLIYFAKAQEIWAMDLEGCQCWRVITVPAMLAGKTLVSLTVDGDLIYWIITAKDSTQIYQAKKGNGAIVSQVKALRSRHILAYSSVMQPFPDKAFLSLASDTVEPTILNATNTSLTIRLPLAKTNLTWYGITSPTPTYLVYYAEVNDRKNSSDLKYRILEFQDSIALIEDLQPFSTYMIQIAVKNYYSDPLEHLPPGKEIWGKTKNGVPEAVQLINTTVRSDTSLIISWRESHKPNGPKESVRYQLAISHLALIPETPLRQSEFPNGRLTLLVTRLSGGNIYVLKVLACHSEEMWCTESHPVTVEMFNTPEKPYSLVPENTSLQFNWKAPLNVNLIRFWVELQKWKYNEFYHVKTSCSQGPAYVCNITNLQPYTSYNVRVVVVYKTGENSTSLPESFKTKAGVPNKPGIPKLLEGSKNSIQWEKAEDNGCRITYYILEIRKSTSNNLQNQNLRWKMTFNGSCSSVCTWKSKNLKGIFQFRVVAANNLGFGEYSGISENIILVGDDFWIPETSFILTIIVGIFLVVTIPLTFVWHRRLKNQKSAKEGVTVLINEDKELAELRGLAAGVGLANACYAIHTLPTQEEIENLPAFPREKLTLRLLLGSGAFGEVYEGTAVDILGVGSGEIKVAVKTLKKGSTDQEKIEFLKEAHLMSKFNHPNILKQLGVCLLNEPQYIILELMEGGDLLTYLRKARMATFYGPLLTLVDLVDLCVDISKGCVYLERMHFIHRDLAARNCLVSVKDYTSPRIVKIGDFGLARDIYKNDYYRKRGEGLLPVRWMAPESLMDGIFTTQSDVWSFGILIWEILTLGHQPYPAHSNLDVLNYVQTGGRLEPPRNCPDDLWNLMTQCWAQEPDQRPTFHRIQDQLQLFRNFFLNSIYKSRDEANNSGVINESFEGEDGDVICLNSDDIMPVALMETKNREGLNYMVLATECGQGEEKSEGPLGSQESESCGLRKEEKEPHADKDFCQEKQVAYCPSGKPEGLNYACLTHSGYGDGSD
Protocol: as §1, §2

ABL = ABL (Homo sapiens, UniProt P00519); assay: TR-FRET kinase assay, ABL; details: Kinase Concentration 0.25 nM; 50 nM ULight-labeled substrate, 200 micromolar ATP, 2 hours
Chain of ABL (P00519 whole entry, species assumed): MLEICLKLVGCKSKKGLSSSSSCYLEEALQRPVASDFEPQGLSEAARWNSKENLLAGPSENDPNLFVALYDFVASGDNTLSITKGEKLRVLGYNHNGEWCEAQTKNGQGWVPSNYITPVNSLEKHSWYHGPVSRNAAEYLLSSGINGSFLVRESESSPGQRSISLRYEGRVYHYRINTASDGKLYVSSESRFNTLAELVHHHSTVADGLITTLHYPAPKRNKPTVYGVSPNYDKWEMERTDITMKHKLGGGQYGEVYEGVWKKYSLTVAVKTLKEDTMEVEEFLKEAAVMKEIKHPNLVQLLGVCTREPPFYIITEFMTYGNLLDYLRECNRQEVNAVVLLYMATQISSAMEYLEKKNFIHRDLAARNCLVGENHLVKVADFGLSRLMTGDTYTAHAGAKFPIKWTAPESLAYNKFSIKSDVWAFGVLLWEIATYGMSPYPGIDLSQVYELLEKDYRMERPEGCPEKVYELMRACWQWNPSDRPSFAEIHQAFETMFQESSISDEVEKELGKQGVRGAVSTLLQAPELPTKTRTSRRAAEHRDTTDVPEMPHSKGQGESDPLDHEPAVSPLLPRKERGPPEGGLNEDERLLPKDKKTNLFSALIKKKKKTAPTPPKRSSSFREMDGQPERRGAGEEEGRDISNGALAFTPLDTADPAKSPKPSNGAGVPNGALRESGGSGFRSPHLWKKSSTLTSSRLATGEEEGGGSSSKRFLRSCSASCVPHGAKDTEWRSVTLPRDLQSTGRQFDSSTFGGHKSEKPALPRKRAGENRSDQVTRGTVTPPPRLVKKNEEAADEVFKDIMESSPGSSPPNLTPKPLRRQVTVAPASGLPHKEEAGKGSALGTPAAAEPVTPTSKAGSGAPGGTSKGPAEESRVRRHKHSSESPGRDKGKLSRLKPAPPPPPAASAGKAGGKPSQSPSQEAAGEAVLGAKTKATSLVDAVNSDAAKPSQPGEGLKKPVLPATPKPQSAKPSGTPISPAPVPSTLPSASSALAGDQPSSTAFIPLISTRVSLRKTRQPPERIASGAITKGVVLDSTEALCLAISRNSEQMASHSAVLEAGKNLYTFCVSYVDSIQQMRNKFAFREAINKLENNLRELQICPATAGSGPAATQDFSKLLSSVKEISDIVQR
Protocol: as §1, §2

KDR = KDR (Homo sapiens, UniProt P35968); assay: TR-FRET kinase assay, KDR; details: Kinase Concentration 0.25 nM; 50 nM ULight-labeled substrate, 200 micromolar ATP, 2 hours
Chain of KDR (P35968 20-1356, species assumed): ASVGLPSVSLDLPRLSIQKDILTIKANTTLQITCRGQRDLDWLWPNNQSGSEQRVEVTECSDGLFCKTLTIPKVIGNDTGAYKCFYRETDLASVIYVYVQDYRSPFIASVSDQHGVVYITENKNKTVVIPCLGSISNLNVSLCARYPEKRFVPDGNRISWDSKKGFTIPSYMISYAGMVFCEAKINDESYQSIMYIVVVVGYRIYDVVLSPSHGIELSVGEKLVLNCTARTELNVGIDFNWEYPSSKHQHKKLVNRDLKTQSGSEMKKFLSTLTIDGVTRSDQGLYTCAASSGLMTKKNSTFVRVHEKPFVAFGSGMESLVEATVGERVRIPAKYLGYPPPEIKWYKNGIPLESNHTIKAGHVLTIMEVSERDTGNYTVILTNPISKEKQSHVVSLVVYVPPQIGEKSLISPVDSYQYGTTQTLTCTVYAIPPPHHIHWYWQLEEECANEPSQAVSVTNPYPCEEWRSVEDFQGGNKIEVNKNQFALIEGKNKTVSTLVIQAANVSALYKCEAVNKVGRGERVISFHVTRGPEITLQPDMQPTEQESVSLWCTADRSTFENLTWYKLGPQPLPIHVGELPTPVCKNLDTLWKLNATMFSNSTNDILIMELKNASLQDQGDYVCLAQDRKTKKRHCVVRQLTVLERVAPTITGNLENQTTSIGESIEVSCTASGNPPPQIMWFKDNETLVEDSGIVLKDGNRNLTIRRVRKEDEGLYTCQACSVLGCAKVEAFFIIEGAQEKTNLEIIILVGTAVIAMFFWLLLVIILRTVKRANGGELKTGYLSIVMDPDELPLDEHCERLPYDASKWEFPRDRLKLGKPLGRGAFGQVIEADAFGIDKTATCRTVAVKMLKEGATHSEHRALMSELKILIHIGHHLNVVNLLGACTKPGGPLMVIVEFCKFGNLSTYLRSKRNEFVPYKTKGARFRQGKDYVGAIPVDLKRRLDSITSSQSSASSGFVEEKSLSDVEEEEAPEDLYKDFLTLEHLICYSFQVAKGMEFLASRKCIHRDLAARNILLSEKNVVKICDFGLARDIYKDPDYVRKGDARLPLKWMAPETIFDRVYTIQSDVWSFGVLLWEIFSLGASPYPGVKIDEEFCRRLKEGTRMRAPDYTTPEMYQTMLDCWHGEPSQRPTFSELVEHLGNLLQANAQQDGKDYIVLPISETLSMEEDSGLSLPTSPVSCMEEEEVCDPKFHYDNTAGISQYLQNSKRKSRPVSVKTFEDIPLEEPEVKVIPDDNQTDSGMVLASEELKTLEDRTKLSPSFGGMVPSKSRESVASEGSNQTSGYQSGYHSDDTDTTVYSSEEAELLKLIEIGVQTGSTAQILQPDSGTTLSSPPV
Protocol: as §1, §2

C AYE AYE AYE K EYA EYA EYA K AYA EYE R (CAYEAYEAYEKEYAEYAEYAKAYAEYER; tyrosine kinase substrate peptide) [BRB1]
Signal to Noise ratio with BRB1 Peptide (EphB4): 29.8
Signal to Noise ratio with BRB1 Peptide (EphB3): 24.7
Signal to Noise ratio with BRB1 Peptide (ROS): 24.5
Signal to Noise ratio with BRB1 Peptide (ABL): 4.1
Signal to Noise ratio with BRB1 Peptide (KDR): 16.9
